{"source": "patent US20040228866A1", "about": "(LUDWIG INSTITUTE FOR CANCER RESEARCH, published 2004)", "binders": {"B1": {"name": "Apoptosis Stimulating Protein 1 (ASPP1) (other)", "chain": "MMPMILTVFLSNNEQILTEVPITPETTCRDVVEFCKEPGEGSCHLAEVWRGNERPIPFDHMMYEHLQIWGPRREEVKFFLRHEDSPTENSEQGGRQTQEQRTQRNVINVPGDKRTEYGVGNPRVELTLSELQDMAARQQQQIENQQQMLVAKEQRLHFLKQQERRQQQSISENEKLQKLKERVEAQENKLKKIRAMRGQVDYSKIMNGNLSAEIERFSAMFQEKKQEVQTAILRVDQLSQQLEDLKKGKLNGFQSYNGKLTGPAAVELKRLYQELQIRNQLNQEQNSKLQQQKELLNKRNMEVAMMDKRISELRERLYGKKIQLNRVNGTSSPQSPLSTSGRVAAVGPYIQVPSAGSFPVLGDPIKPQSLSIASNAAHGRSKSANDGNWPTLKQNSSSSVKPVQVAGADWKDPSVEGSVKQGTVSSQPVPFSALGPTEKPGIEIGKVPPPIPGVGKQLPPSYGTYPSPTPLGPGSTSSLERRKEGSLPRPSAGLPSRQRPTLLPATGSTPQPGSSQQIQQRISVPPSPTYPPAGPPAFPAGDSKPELPLTVAIRPFLADKGSRPQSPRKGPQTVNSSSIYSMYLQQATPPKNYQPAAHSALNKSVKAVYGKPVLPSGSTSPSPLPFLHGSLSTGTPQPQPPSESTEKEPEQDGPAAPADGSTVESLPRPLSPTKLTPIVHSPLRYQSDADLEALRRKLANAPRPLKKRSSITEPEGPGGPNIQKLLYQRFNTLAGGMEGTPFYQPSPSQDFMGTLADVDNGNTNANGNLEELPPAQPTAPLPAEPAPSSDANDNELPSPEPEELICPQTTHQTAEPAEDNNNNVATVPTTEQIPSPVAEAPSPGEEQVPPAPLPPASHPPATSTNKRTNLKKPNSERTGHGLRVRFNPLALLLDASLEGEFDLVQRIIYEVEDPSKPNDEGITPLHNAVCAGHHHIVKFLLDFGVNVNAADSDGWTPLHCAASCNSVHLCKQLVESGAAIFASTISDIETAADKCEEMEEGYIQCSQFLYGVQEKLGVMNKGVAYALWDYEAQNSDELSFHEGDALTILRRKDESETEWWWARLGDREGYVPKNLLGLYPRIKPRQRTLA"}, "B2": {"name": "ASPP2 (1-1128) (other)", "chain": "MMPMFLTVYLSNNEQHFTEVPVTPETICRDVVDLCKEPGESDCHLAEVWCGSERPVADNERMFDVLQRFGSQRNEVRFFLRHERPPGRDIVSGPRSQDPSLKRNGVKVPGEYRRKENGVNSPRMDLTLAELQEMASRQQQQIEAQQQLLATKEQRLKFLKQQDQRQQQQVAEQEKLKRLKEIAENQEAKLKKVRALKGHVEQKRLSNGKLVEEIEQMNNLFQQKQRELVLAVSKVEELTRQLEMLKNGRIDSHHDNQSAVAELDRLYKELQLRNKLNQEQNAKLQQQRECLNKRNSEVAVMDKRVNELRDRLWKKKAALQQKENLPVSSDGNLPQQAASAPSRVAAVGPYIQSSTMPRMPSRPELLVKPALPDGSLVIQASEGPMKIQTLPNMRSGAASQTKGSKIHPVGPDWSPSNADLFPSQGSASVPQSTGNALDQVDDGEVPLREKEKKVRPFSMFDAVDQSNAPPSFGTLRKNQSSEDILRDAQVANKNVAKVPPPVPTKPKQINLPYFGQTNQPPSDIKPDGSSQQLSTVVPSMGTKPKPAGQQPRVLLSPSIPSVGQDQTLSPGSKQESPPAAAVRPFTPQPSKDTLLPPFRKPQTVAASSIYSMYTQQQAPGKNFQQAVQSALTKTHTRGPHFSSVYGKPVIAAAQNQQQHPENIYSNSQGKPGSPEPETEPVSSVQENHENERIPRPLSPTKLLPFLSNPYRNQSDADLEALRKKLSNAPRPLKKRSSITEPEGPNGPNIQKLLYQRTTIAAMETISVPSYPSKSASVTASSESPVEIQNPYLHVEPEKEVVSLVPESLSPEDVGNASTENSDMPAPSPGLDYEPEGVPDNSPNLQNNPEEPNPEAPHVLDVYLEEYPPYPPPPYPSGEPEGPGEDSVSMRPPEITGQVSLPPGKRTNLRKTGSERIAHGMRVKFNPLALLLDSSLEGEFDLVQRIIYEVDDPSLPNDEGITALHNAVCAGHTEIVKFLVQFGVNVNAADSDGWTPLHCAASCNNVQVCKFLVESGAAVFAMTYSDMQTAADKCEEMEEGYTQCSQFLYGVQEKMGIMNKGVIYALWDYEPQNDDELPMKEGDCMTIIHREDEDEIEWWWARLNDKEGYVPRNLLGLYPRIKPRQRSLA"}}, "key": {"[1]": {"biological_target": "p53 (wild type) (human, UniProt P04637 1-393)", "sequence (P04637 whole entry)": "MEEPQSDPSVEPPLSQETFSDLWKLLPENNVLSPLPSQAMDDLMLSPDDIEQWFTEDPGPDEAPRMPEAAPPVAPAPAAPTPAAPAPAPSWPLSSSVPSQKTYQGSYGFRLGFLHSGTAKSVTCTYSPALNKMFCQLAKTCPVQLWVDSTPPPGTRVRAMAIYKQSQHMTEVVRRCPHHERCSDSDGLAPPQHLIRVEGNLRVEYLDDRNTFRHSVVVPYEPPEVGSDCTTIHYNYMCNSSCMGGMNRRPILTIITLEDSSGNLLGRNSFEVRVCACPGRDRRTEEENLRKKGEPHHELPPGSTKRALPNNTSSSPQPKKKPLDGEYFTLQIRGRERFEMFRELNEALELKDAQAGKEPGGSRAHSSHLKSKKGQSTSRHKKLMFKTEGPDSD", "assay": "cell-based or functional assay"}, "[2]": {"biological_target": "T1, p63γ (UniProt Q9H3D4-5 40-487, limits assumed)", "T1 sequence (looked up)": "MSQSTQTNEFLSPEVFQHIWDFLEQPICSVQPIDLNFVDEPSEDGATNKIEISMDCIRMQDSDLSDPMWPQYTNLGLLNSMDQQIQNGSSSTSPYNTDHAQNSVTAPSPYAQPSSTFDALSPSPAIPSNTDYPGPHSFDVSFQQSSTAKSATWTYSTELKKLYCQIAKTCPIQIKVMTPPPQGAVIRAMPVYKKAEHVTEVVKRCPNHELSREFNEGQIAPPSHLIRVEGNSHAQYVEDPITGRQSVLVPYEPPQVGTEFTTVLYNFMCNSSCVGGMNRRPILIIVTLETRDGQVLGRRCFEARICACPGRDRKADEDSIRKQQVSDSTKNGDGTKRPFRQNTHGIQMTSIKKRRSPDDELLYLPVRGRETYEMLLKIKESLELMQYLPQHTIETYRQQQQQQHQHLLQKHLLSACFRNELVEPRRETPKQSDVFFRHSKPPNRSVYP", "assay": "cell-based or functional assay"}}}
{"binder": "B1", "values": [{"measurement": "transactivation function on the Bax promoter (Bax-luc reporter)", "setting": "[1]", "value": "~6", "unit": "fold"}, {"measurement": "transactivation function on the Bax promoter (Bax-luc reporter)", "setting": "[2]", "value": 4, "unit": "fold"}]}
{"binder": "B2", "values": [{"measurement": "transactivation function on the Bax promoter (Bax-luc reporter)", "setting": "[1]", "value": 20, "unit": "fold"}, {"measurement": "transactivation function on the Bax promoter (Bax-luc reporter)", "setting": "[2]", "value": 7, "unit": "fold"}]}
